We go through 125 sequences from the supplement of paper PMC9112550, “Optimization of the antimicrobial peptide Bac7 by deep mutational scanning” (BMC Biology, 2022).
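Also: peptides expressed intracellularly from a pBAD plasmid library in pooled LB shake-flask culture, induced with 0.3% L-arabinose, DNA abundance read by NGS, three biological replicates, DESeq2 with apeglm shrinkage.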

This data set deals with Escherichia coli TOP10. Description: shrunken log2 fold change of peptide-encoding DNA abundance (4.5 h post-induction vs induction); higher = less antimicrobial activity (less host growth inhibition). The settings on record: time post-induction: 4.5 h; library: site-saturation at positions 5, 18, 19, 20.
Regarding RRIRRRPPRLPRPRPRPNFVPRP, the “shrunken log2 fold change” value was -0.142. On to RRIRCRPPRLPRPRPRPHMHPRP, for which the “shrunken log2 fold change” value was -0.527. As to RRIRNRPPRLPRPRPRPICYPRP, the “shrunken log2 fold change” value was -0.818.

For the sequence RRIRGRPPRLPRPRPRPQHEPRP, the “shrunken log2 fold change” value was determined as 0.0159.

As to RRIRHRPPRLPRPRPRPQKDPRP, the “shrunken log2 fold change” value turned out to be 0.0122. Turning to RRIRVRPPRLPRPRPRPTARPRP, the “shrunken log2 fold change” value came to 0.293.

For RRIRVRPPRLPRPRPRPNQVPRP, the “shrunken log2 fold change” value was -0.185.

As for RRIRYRPPRLPRPRPRPAPTPRP, the “shrunken log2 fold change” value stood at 0.169. The figure for RRIRHRPPRLPRPRPRPDKDPRP is -0.44; for RRIRIRPPRLPRPRPRPGNTPRP it is -0.546; for RRIRSRPPRLPRPRPRPMWMPRP it is -0.344. The value for RRIRFRPPRLPRPRPRPRKIPRP was 0.0429. With RRIRLRPPRLPRPRPRPNNTPRP, the “shrunken log2 fold change” value was -0.687.

On to RRIRIRPPRLPRPRPRPMELPRP, for which the “shrunken log2 fold change” value is -0.000689. For the sequence RRIRQRPPRLPRPRPRPGVDPRP, the “shrunken log2 fold change” value was 0.244. On to RRIRWRPPRLPRPRPRPKPEPRP, for which the “shrunken log2 fold change” value worked out at 0.351.

As for RRIRARPPRLPRPRPRPDCKPRP, the “shrunken log2 fold change” value was -0.129.

In the case of RRIRERPPRLPRPRPRPLTVPRP, the “shrunken log2 fold change” value is -0.0383. The figure for RRIRGRPPRLPRPRPRPVEPPRP is 0.79; for RRIRWRPPRLPRPRPRPPFGPRP it is 0.274. As to RRIRIRPPRLPRPRPRPNKWPRP, the “shrunken log2 fold change” value is -0.0869. The figure for RRIRERPPRLPRPRPRPAITPRP is -0.401; for RRIRPRPPRLPRPRPRPCGNPRP it is -0.0502; for RRIRHRPPRLPRPRPRPFPAPRP it is -0.405. For RRIRVRPPRLPRPRPRPITGPRP, the “shrunken log2 fold change” value was -0.00538. As for RRIRPRPPRLPRPRPRPDRPPRP, the “shrunken log2 fold change” value is -0.0807. The figure for RRIRARPPRLPRPRPRPEWEPRP is 0.877; for RRIRPRPPRLPRPRPRPTKYPRP it is -0.344; for RRIRIRPPRLPRPRPRPGWFPRP it is -0.141.

As for RRIRQRPPRLPRPRPRPNNNPRP, the “shrunken log2 fold change” value is -0.825.

Regarding RRIRMRPPRLPRPRPRPVYKPRP, the “shrunken log2 fold change” value was -0.014. On to RRIRNRPPRLPRPRPRPKIWPRP, for which the “shrunken log2 fold change” value turned out to be 0.0854. The value for RRIRRRPPRLPRPRPRPADMPRP was -0.0139; that for RRIRHRPPRLPRPRPRPHPEPRP was 0.0129. Take RRIRARPPRLPRPRPRPMPHPRP: the “shrunken log2 fold change” value was 0.145. The value for RRIRSRPPRLPRPRPRPICGPRP was -0.056. For RRIRIRPPRLPRPRPRPSWIPRP, the “shrunken log2 fold change” value is -0.411. In the case of RRIRFRPPRLPRPRPRPGRYPRP, the “shrunken log2 fold change” value is -0.0275. The value for RRIRWRPPRLPRPRPRPMEDPRP was 0.383; that for RRIRVRPPRLPRPRPRPAGFPRP was 0.148.

As to RRIRWRPPRLPRPRPRPTSNPRP, the “shrunken log2 fold change” value is -0.0919. As to RRIRQRPPRLPRPRPRPDGAPRP, the “shrunken log2 fold change” value was 0.0271. RRIRYRPPRLPRPRPRPQLFPRP: the “shrunken log2 fold change” value was -0.745. The figure for RRIRERPPRLPRPRPRPPPTPRP is 0.518. The value for RRIRMRPPRLPRPRPRPHTRPRP was 0.387; that for RRIRPRPPRLPRPRPRPIGDPRP was -0.0205.

Consider RRIRRRPPRLPRPRPRPPEIPRP, for which the “shrunken log2 fold change” value is -0.17.

For RRIRTRPPRLPRPRPRPLRPPRP, the “shrunken log2 fold change” value turned out to be 0.864.

With RRIRYRPPRLPRPRPRPLKMPRP, the “shrunken log2 fold change” value is -0.26. On to RRIRHRPPRLPRPRPRPLSFPRP, for which the “shrunken log2 fold change” value is -0.137. The figure for RRIRARPPRLPRPRPRPPDQPRP is 1.16; for RRIRARPPRLPRPRPRPWSYPRP it is -0.0574. Turning to RRIRVRPPRLPRPRPRPVSWPRP, the “shrunken log2 fold change” value is 0.469. For the sequence RRIRDRPPRLPRPRPRPGWHPRP, the “shrunken log2 fold change” value was 0.27. Turning to RRIRDRPPRLPRPRPRPRLCPRP, the “shrunken log2 fold change” value came to 0.265. The figure for RRIRQRPPRLPRPRPRPPCSPRP is 0.219; for RRIRTRPPRLPRPRPRPISNPRP it is -0.576; for RRIRLRPPRLPRPRPRPRKQPRP it is 0.0587. The figure for RRIRFRPPRLPRPRPRPCVKPRP is -0.123; for RRIRLRPPRLPRPRPRPSLKPRP it is 0.0368; for RRIRHRPPRLPRPRPRPCWTPRP it is -0.237. The figure for RRIRSRPPRLPRPRPRPAHMPRP is -0.138; for RRIRLRPPRLPRPRPRPRCFPRP it is -0.0548; for RRIRRRPPRLPRPRPRPEHCPRP it is -0.00244. With RRIRPRPPRLPRPRPRPPTGPRP, the “shrunken log2 fold change” value stood at 0.452. The value for RRIRGRPPRLPRPRPRPPFRPRP was 0.681; that for RRIRYRPPRLPRPRPRPAMGPRP was -0.031. RRIRPRPPRLPRPRPRPGFWPRP: the “shrunken log2 fold change” value was found to be 0.61. The figure for RRIRARPPRLPRPRPRPFKRPRP is 0.0331; for RRIRQRPPRLPRPRPRPHKDPRP it is -0.105. The figure for RRIRERPPRLPRPRPRPYFQPRP is -0.967; for RRIRHRPPRLPRPRPRPIMTPRP it is -0.895. The value for RRIRMRPPRLPRPRPRPMWLPRP was 0.208; that for RRIRTRPPRLPRPRPRPYWDPRP was -0.0758. Take RRIRKRPPRLPRPRPRPDWLPRP: the “shrunken log2 fold change” value was found to be 0.308. As to RRIRFRPPRLPRPRPRPCHSPRP, the “shrunken log2 fold change” value is -0.0231. The value for RRIRVRPPRLPRPRPRPDPVPRP was -0.00845; that for RRIRWRPPRLPRPRPRPYLDPRP was -0.33; that for RRIRDRPPRLPRPRPRPKCSPRP was 0.243. Consider RRIRSRPPRLPRPRPRPIIWPRP, for which the “shrunken log2 fold change” value is -0.174.

With RRIRRRPPRLPRPRPRPKSFPRP, the “shrunken log2 fold change” value worked out at 0.0604. The value for RRIRRRPPRLPRPRPRPKFRPRP was -0.0588. For the sequence RRIRTRPPRLPRPRPRPEHVPRP, the “shrunken log2 fold change” value turned out to be 0.0823. Regarding RRIRIRPPRLPRPRPRPTYVPRP, the “shrunken log2 fold change” value is -0.0344. Consider RRIRHRPPRLPRPRPRPPPWPRP, for which the “shrunken log2 fold change” value was 0.446. The figure for RRIRKRPPRLPRPRPRPFKAPRP is -0.111; for RRIRRRPPRLPRPRPRPGYTPRP it is 0.243; for RRIRMRPPRLPRPRPRPVWIPRP it is -0.0455. The value for RRIRFRPPRLPRPRPRPWMDPRP was -0.347; that for RRIRNRPPRLPRPRPRPCNTPRP was -0.442; that for RRIRFRPPRLPRPRPRPHWFPRP was -0.0545. Regarding RRIRVRPPRLPRPRPRPPYEPRP, the “shrunken log2 fold change” value was -0.0422.

RRIRSRPPRLPRPRPRPLIEPRP: the “shrunken log2 fold change” value was -0.06. The value for RRIRTRPPRLPRPRPRPVVIPRP was 1.29.

Regarding RRIRIRPPRLPRPRPRPRANPRP, the “shrunken log2 fold change” value came to 0.0386. The value for RRIRMRPPRLPRPRPRPRERPRP was 0.623.

As for RRIRKRPPRLPRPRPRPEYEPRP, the “shrunken log2 fold change” value turned out to be 0.0698.

With RRIRARPPRLPRPRPRPPLRPRP, the “shrunken log2 fold change” value worked out at 1.63. Consider RRIRARPPRLPRPRPRPWWIPRP, for which the “shrunken log2 fold change” value was -0.0901. Turning to RRIRNRPPRLPRPRPRPSALPRP, the “shrunken log2 fold change” value was -0.213. The figure for RRIRFRPPRLPRPRPRPDEWPRP is 0.0983; for RRIRWRPPRLPRPRPRPIMEPRP it is 0.0164. The value for RRIRVRPPRLPRPRPRPNFAPRP was 0.104.

In the case of RRIRARPPRLPRPRPRPGGQPRP, the “shrunken log2 fold change” value is 0.262. The value for RRIRKRPPRLPRPRPRPEPCPRP was 0.0397. The value for RRIRFRPPRLPRPRPRPNNLPRP was -0.12; that for RRIRQRPPRLPRPRPRPIGEPRP was -0.0171; that for RRIRSRPPRLPRPRPRPYMYPRP was -0.466. The value for RRIRMRPPRLPRPRPRPKGPPRP was 0.716; that for RRIRQRPPRLPRPRPRPLWDPRP was -0.0887; that for RRIRGRPPRLPRPRPRPNWRPRP was 0.595. With RRIRIRPPRLPRPRPRPNTEPRP, the “shrunken log2 fold change” value is -0.0443. RRIRQRPPRLPRPRPRPQMYPRP: the “shrunken log2 fold change” value is -0.0131. In the case of RRIRHRPPRLPRPRPRPMAIPRP, the “shrunken log2 fold change” value was determined as 0.0143. The figure for RRIRCRPPRLPRPRPRPGCCPRP is 0.137. For RRIRSRPPRLPRPRPRPKYDPRP, the “shrunken log2 fold change” value was -0.0717. The figure for RRIRCRPPRLPRPRPRPESFPRP is 0.0159; for RRIRTRPPRLPRPRPRPLNDPRP it is -0.192. The figure for RRIRGRPPRLPRPRPRPKPQPRP is 0.543; for RRIRRRPPRLPRPRPRPYTQPRP it is -0.141; for RRIRLRPPRLPRPRPRPMRQPRP it is 0.181. The figure for RRIRVRPPRLPRPRPRPYLSPRP is -0.491; for RRIRYRPPRLPRPRPRPKAPPRP it is 0.291. In the case of RRIRTRPPRLPRPRPRPTRHPRP, the “shrunken log2 fold change” value came to 0.237.

Consider RRIRIRPPRLPRPRPRPHYMPRP, for which the “shrunken log2 fold change” value was -0.943.
